In the nanobody polyreactivity screen of Harvey et al. (2022):

Assay: yeast display, Sf9 membrane polyspecificity reagent, FACS + sequencing; frameworks hold sequencing errors
In short: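 A nanobody's polyreactivity label depends on the gate it was sorted from. Yeast display cells were stained with 10% biotinylated, detergent-solubilized Sf9 membrane reagent for 1 hour at 4 °C, enriched on streptavidin microbeads and sorted by FACS. The low and high (top ~1%) gates were set on anti-HA fluorescence for expression and streptavidin fluorescence for reagent binding.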

QVQLVESGGGLVQAGGSLRLSCAASGIIFTVYAMGWYRQAPGKERELVASITSNGGSTYYADSVKGRFTISRDNAKNTVYLQMNSLKPEDTAVYYCAADSYYDPVDYNYWGQGTQVTVSS
polyreactivity (PSR sort gate): low polyreactivity

QVQLVESGGGLVQAGGSLRLSFAATGSILLRYAMGWYRQAPGKERELVAAISYDGGGTFYADSVKGRFTISRDNAKNTVYLQMHSLKPEDTAVYYCAARVIFRVKGLEYWGQGTQVTVSS
polyreactivity (PSR sort gate): low polyreactivity

QVQLVESGGGLVQAGGSLRLSCAASGFIFSGNAMGWYRQAPGKERELVAAITWSDGSTYYADSVKGRFTISRDNAKNTVYFQINSLKPEDSAVYYCAVGALQITRYDSWGQGTQVTVSS
polyreactivity (PSR sort gate): low polyreactivity

QVQLVESGGGLVQAGGSLRLSCAASGFTFPRYAMGWYREAPGKEREFVAAINRGGSTYYADSVKGRFTISRDNAKNTVYLQMNSLKPEDTAVYYCITDRKNRPSPGDYYWGQGTQVTVSS
polyreactivity (PSR sort gate): low polyreactivity

QVQLVESGGGLVQAGGSLRLSCAASGSTFNYYAMGWYRQAHGTERELFAAITYRGGSTYYADSVKGRFTISRDNAKNTVYLHMNLLKPEDTAVYYCNARQVRYMYAQDEGYDYWGLGTQVTVSS
polyreactivity (PSR sort gate): high polyreactivity

QVQLVESGGGLVQAGGSLRLSCAASGLIFSRYAMGWYRQAPGKEREFVAAINWNGGRTYYADSVKGRFTISRDNAKNTVYLQMNSLKPEDTAVYYCAATWIDYYVIYAYDYWGQGTQVTVSS
polyreactivity (PSR sort gate): high polyreactivity

QVHHVESGGGLVQAGGSLRLSCAASGRIFYPYAMGWYRQAPGKERELVASITSGGGTYYADSVKGRFTISRDNAKNTVYLQMNSLKPEDTAVYYCAAKYYTSWIRYDYWGQGTQVTVSS
polyreactivity (PSR sort gate): low polyreactivity

QVQLVESGGGLVQAGGSLRLSCAASGSTVGHYAMGWYRQAPGKERELVAAISVSGGSTYYADSVKGRFTISRDTAKNTVYLQMNSLKPEDTAVYYCAREYAHLSFLSTSSDYWGQGTQVTVSS
polyreactivity (PSR sort gate): low polyreactivity

QLQLVESGGGLVQAGGSLRLSCAASGRTSRRYAMGWYRQAPGKERELVAAIRGSGGSTYYADSVKGRFTISRDNAKNTVYLQMNSLKPEDTAVYYCAADWSFWSLAYPSAKFYAEFDYWGQGTQVTVSS
polyreactivity (PSR sort gate): high polyreactivity

QVQLVESGGGLVQAGGSLRLSCAASGFTFPEYSMGWYRQAPGKERELVAAITRRGTTTYYADSVKGRFTISRYTAKNTVYLQMNILKPEDTAVYYCAALAWSAYDYWGQGTQVTVSS
polyreactivity (PSR sort gate): high polyreactivity

QVQLVESGGGLVQAGGSLRLSCAASGITFKYYAMGWYRQAPGKERELVADISWGGGSTYYADSVKGRFTISRDNAKNTVYLQMNSLKPEDTAVYYCAAEYSGSYYSFWMVYWGLGTQVTVSS
polyreactivity (PSR sort gate): low polyreactivity

QVQLVESGGGLVQAGGSLLLSCAASGIIFGTNAMGWYRQAPGKERELVAGITSSGDSTYYADSVKGRFTISRDNAKNTVYLQMNSLKPEDTAVYYCAREIRTREFDSWGQGTQVTVSS
polyreactivity (PSR sort gate): low polyreactivity

QVQRVESEGGLVQAGGSLRLSCAASGRTFENYAMGWYRQAPGKERELVATINGRSGNTYYADSVKGRFTISRDNAKNTVYLQLNSLKPDDTAVYYCNAYYEGDYTVGYDYWGQGTQVTVSS
polyreactivity (PSR sort gate): high polyreactivity

QVQHVESGGGIVQAGGSLRLSCAASGSIFYQYAMGWYRQSPGKERELVAASSRSGGSTYYADSVKGRFTISRHNAKNTVYLQMNSLKPEDTAVYYCAARAVRAAYDYWGQGTQVTVSS
polyreactivity (PSR sort gate): low polyreactivity

QVQLVESGGGLVQAAPSLRLSCAASGSTINNNAMGWYRQAPRKERELVAAIDSGFSTNYADSVKGRFTISRDNAKNTVYLQMNSLKPEDTAVYYCYADPDYFDYWGQGTQVTVSS
polyreactivity (PSR sort gate): low polyreactivity

QVQLVESGGGLFQAGGSLRLSCAASGSTFGTYAMGRYRPPPAKERELVAAISTGGSTYYADSVKGRFTISRDNAKNTVYLQMNSLKPEDTAVYYCAALADYVRRASDYWGQGTQVTVSS
polyreactivity (PSR sort gate): low polyreactivity

QVQLVESGGGLVQAGGSLRLSCAASGRTFTSYPMGWYRQAPGKERELVAVITRRGGSTSYADSVKGRFTISRDNAKHTVYLQMNSLKPEDTAVYYCAAKRTWPDVKYIRYGYWGQGTQVTVSS
polyreactivity (PSR sort gate): high polyreactivity

QVQHVESGGGLVQAGGSLRLSCAASGRTFTYNAMGWYRQAPGKERELVAAISWNGGRTYYADSVKGRFTISRDNAKNTVYLEMNSLKPEETAVYYCNAVSYNLAAYDYWGQGTQVTVSS
polyreactivity (PSR sort gate): high polyreactivity

QVQLVESGGGLVQAGGSLRLSCAASGRTFDYNAMGWYRQAPGKERELVADISNGGTTSYADSVKGRFTISRDNAKNTVYLQMNSLKPEDTAVYYCATLYDWSSFANSYWYFGWEEDYWGQGTQVTVSS
polyreactivity (PSR sort gate): low polyreactivity

QVQLQESGGGLVQAGGSLRLSCAPSGSISRYYDMGWYRQAPGKEREYVAGISGGAITYYADSVKGRFTISRDNAKNTVYLQMNSLKPEDTAVYYCAADTCVYQYHSYWGQGTQVTVSS
polyreactivity (PSR sort gate): low polyreactivity

QVQLVESGGGLVQAGGSLRLSCAASGRTFAAYAMGWYRQAPGKEREFVADITYSGGSTTYADSVKGRFTISRDNAKNTVYLQMNSLKPEDTAVYYCNKLAYTRGWRGFVWYDYWGQGTQVTVSS
polyreactivity (PSR sort gate): low polyreactivity

QVQLVESGGGLVQAGGSLRLSCAASGGTFMYYDMGWYRQAPGKERELVAAISSGSSTYYADSVKGRFTISRDNAKNTVYLQMNRLKQEDTAVYYCAKLHYAHYWGQGTQVTVSS
polyreactivity (PSR sort gate): low polyreactivity

QVQLVESGGGLVQAGGSLRLSCAASGRIFVINAMGLYRQAPGKERELVADITWSGGSTYADSVKGRFTISRDTAKNTVYLQLNSLKPEDTAVYYCAAVYLRVDRYLQVYRYDYWGQGTQVTVSS
polyreactivity (PSR sort gate): high polyreactivity

QVQLVESVGGLVQAGGSLRLSCAASAFNFDYNAMGWYRQAPGKERELVAVISSSGSRTYYADSVKGRFTISRDNAKNTVYLQMNSLKPEDTAVYYCAAARIGTLDYWGQGTQVTVSS
polyreactivity (PSR sort gate): high polyreactivity

QVQLVESGGGLVQAGGSLRLSCAASGSTFQYNAMGWYRQAPGKERELVAVITRRGGRTYYADSVKGRFTISRDNAKNTVYLQMNSLKPEDTAVYYCAAYYDYTHRFYYWGQGTQVTVSS
polyreactivity (PSR sort gate): high polyreactivity

QVQLVESGGGLVQAGGSLRLSCAASGRIFSIYAMGWYRQAPGKERELVAAISKRGGSTSYADSVKGRFTISRDNAKNTVYLQMNSLKPEDTAVYYCNARGWIPARGWDDYYWGQGTQVTVSS
polyreactivity (PSR sort gate): high polyreactivity

QVQLVESGGGLVQAGGSLRLSCAASGITFVPYAMGWSRQAPGKERELVAAITWRGGSTYYADSVKGRFTISRDNAKNTVYLQMNSLKPEDTAVYYCAVKFRSSQYQLQYGSLGQGTQVTVSS
polyreactivity (PSR sort gate): high polyreactivity

QVQLVESGGGLVQAGGSLRLSCAASGSTFPQNVMGWYRQAPGKERELVAAITRSAGSTYYADSVKGRFTISRDNAKNTVYLQMNSLKPEDTADYYCNTGRQRGDCWGQGTQVTVSS
polyreactivity (PSR sort gate): high polyreactivity

QVQLVESGGGLVQAGGSLRLSCAASGYIFGAYAMGWYRPAPGKERELVAGITASGDSTYYADSVKGRFTISRDNAKNTVYLQMNSLKPEDTAVYYCNAQPDIGLYDRQWKEPYEYWGQGTQVTVSS
polyreactivity (PSR sort gate): low polyreactivity

QVQLVESGGGLVQAGGSLRLSCAASGFTFSKYVMGWYRQAPGKERELVAAITTSGGSTYYADSVKGRFTISRDNAKNTVYLQMNSLKPEDTAVYYCNARSLHTSEGDYWGQGTQVTVSS
polyreactivity (PSR sort gate): low polyreactivity

QVQHVESGGCLVQARGSLRLSCASSGRTFDIYARGWYRHPPGKESELVAVISASGGSTYYADSVKGRFTISRDNAKNTVYLQMNSLKPEDTAVYYCAARYWFRFQYDYWGQGTQVTVSS
polyreactivity (PSR sort gate): high polyreactivity

QVQLVESGGGLVQAGGSLRLSCASSRINFYLYAMGWYRQAPGIERELVAAISRRGVSTYYADSVKGRFTISRDNAKNSVYLEMKSLKAEDTGVYYCAAAGFGYTGEEFWGQGTQVTVSS
polyreactivity (PSR sort gate): high polyreactivity
